± gives the standard deviation of the averaged measurements.
B1: library; a variant is named by its letters at N, in order (parent)
chain: GCUGUCACCGGUGUAUUACCCUAGUGGUCGACCGGUCUGAUGAGUCUNNNNNNAGACGAAACAGC

Key:
hypoxanthine [1] = variants of: B1; experiment: normalized RNA/DNA level with ligand (relative to sTRSVctl = 100) (log10 (% of sTRSVctl)); ligand: hypoxanthine (xanthine aptamer); higher = less ribozyme self-cleavage, higher mRNA level; conditions: ligand concentration (+) RNA-Seq: 5 mM, HEK293T, reporter: mCherry (pCS4076), ligand present: yes
Outline: (§1)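 Ribozyme switch library plasmids with mCherry reporters (eGFP in certain ligand experiments) went into HEK293T cells at 4 µg per 6-well well. Where ligand was used, it was applied 1 h before transfection, and total RNA was extracted with EDTA 72 h later for reverse transcription, amplification, barcoding and sequencing. RNA level is the RNA-to-DNA read ratio normalized to a spiked-in non-cleaving sequence or to the leading sequences, then scaled and log-transformed. Scaling was ×100 with log10, the leading set comprised 25 sequences, and the cutoff was ≥100 DNA reads.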

hypoxanthine [2] = variants of: B1; experiment: normalized RNA/DNA level without ligand (relative to sTRSVctl = 100) (log10 (% of sTRSVctl)); ligand: hypoxanthine (xanthine aptamer); higher = less ribozyme self-cleavage, higher mRNA level; conditions: HEK293T, reporter: mCherry (pCS4076), ligand present: no
Outline: as §1

hypoxanthine [3] = variants of: B1; experiment: FACS-Seq fitted mean relative fluorescence mCherry/BFP without ligand (log10 relative fluorescence); ligand: hypoxanthine (xanthine aptamer); higher = higher reporter protein expression; conditions: HEK293T, ligand present: no
Outline: (§2)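 Cells were sorted into 6 bins on the mCherry/BFP ratio after 48 h with or without ligand. These were enriched HEK293T cells transduced by lentivirus with a ribozyme-switch mCherry reporter plus an EF1α-BFP marker. Fluorescence was obtained by fitting a normal distribution to sequencing-derived bin counts. Counts came from MiSeq sequencing of PCR-amplified, barcoded genomic DNA, binned by log10(mCherry/BFP), with means scaled to five spiked-in control ribozymes.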

hypoxanthine [4] = variants of: B1; experiment: FACS-Seq fitted mean relative fluorescence mCherry/BFP with ligand (log10 relative fluorescence); ligand: hypoxanthine (xanthine aptamer); ligand concentration (+) FACS-Seq: 5 mM; higher = higher reporter protein expression; conditions: HEK293T, ligand present: yes
Outline: as §2

Variant	normalized RNA/DNA level with ligand (log10) (hypoxanthine [1])	normalized RNA/DNA level without ligand (log10) (hypoxanthine [2])	FACS-Seq fitted mean (log10) (hypoxanthine [3])	FACS-Seq fitted mean (log10) (hypoxanthine [4])
GAAAUU	1.95 ± 0.046	1.87 ± 0.039		
GAAAUC	1.97 ± 0.022	1.88 ± 0.078		
UUUUAU	1.96 ± 0.018	1.85 ± 0.06	0.589 ± 0.097	0.296 ± 0.011
GAAGUC	1.97 ± 0.022	1.87 ± 0.035		
GAAGUA	1.88 ± 0.05	1.741 ± 0.0072		
CAAACA	1.93 ± 0.061	1.75 ± 0.039		
CAAACU	1.94 ± 0.039	1.9 ± 0.035		
CAAACG	1.906 ± 0.0079	1.87 ± 0.06		
CACAAG	1.877 ± 0.0098	1.676 ± 0.013		
CACAAU	1.89 ± 0.053	1.78 ± 0.034		
CACAAA	1.8939 ± 0.00066	1.76 ± 0.023		
CACAAC	1.93 ± 0.027	1.839 ± 0.018		
GACCAC	1.94 ± 0.022	1.835 ± 0.017		
GACCAU	1.932 ± 0.0042	1.838 ± 0.0066		
CACACA	1.9 ± 0.036	1.78 ± 0.037		
CACACC	1.99 ± 0.035	1.929 ± 0.0057		
CACACG	1.96 ± 0.032	1.861 ± 0.017		
UACCUC	1.99 ± 0.082	1.93 ± 0.067		
GACAAG	1.83 ± 0.043	1.36 ± 0.018		
GACAAU	1.897 ± 0.017	1.815 ± 0.013		
GACAAC	1.93 ± 0.072	1.73 ± 0.021		
CAAGAU	1.94 ± 0.048	1.76 ± 0.048		
CAAGAC	1.9181 ± 0.0013	1.825 ± 0.015		
CUUGAU	1.94 ± 0.031	1.74 ± 0.011	-0.553 ± 0.022	-0.303 ± 0.012
CAAGCU	1.981 ± 0.0081	1.892 ± 0.003		
CAAGCG	1.94 ± 0.037	1.82 ± 0.03		

Variant	normalized RNA/DNA level with ligand (log10) (hypoxanthine [1])	normalized RNA/DNA level without ligand (log10) (hypoxanthine [2])	FACS-Seq fitted mean (log10) (hypoxanthine [3])	FACS-Seq fitted mean (log10) (hypoxanthine [4])
GACAUU	1.92 ± 0.057	1.856 ± 0.0056		
GACAUC	1.97 ± 0.081	1.93 ± 0.077		
GAAGCC	1.948 ± 0.016	1.85 ± 0.041		
GAAGCU	1.982 ± 0.015	1.84 ± 0.031		
CAACUG	1.9 ± 0.045	1.84 ± 0.022		
CAACUC	1.97 ± 0.028	1.96 ± 0.032		
GUUUGG	1.92 ± 0.03	1.57 ± 0.06	0.231 ± 0.049	0.62263 ± 0.00024
CAAGGG	1.72 ± 0.036	1.28 ± 0.043		
CAAGGA	1.912 ± 0.012	1.79 ± 0.044		
AUUGGU	1.89 ± 0.048	1.66 ± 0.084	0.357 ± 0.04	0.601 ± 0.029
AUUGGA	1.944 ± 0.0073	1.647 ± 0.013	0.196 ± 0.12	0.374 ± 0.042
AUUGGG	1.87 ± 0.085	1.36 ± 0.03	0.0996 ± 0.0053	0.592 ± 0.018
UAACAC	1.91 ± 0.05	1.7 ± 0.053		
UAACAU	1.919 ± 0.013	1.78 ± 0.024		
AAAACC	1.93 ± 0.033	1.876 ± 0.018		
CAAAUG	1.913 ± 0.011	1.82 ± 0.041		
CAAAUU	1.95 ± 0.029	1.806 ± 0.014		
UAAAGA	1.891 ± 0.0053	1.57 ± 0.021		
CAAAGC	1.956 ± 0.01	1.77 ± 0.021		
CAAAGG	1.751 ± 0.005	1.26 ± 0.062		
CAAAGA	1.93 ± 0.03	1.768 ± 0.0019		
CAACGU	1.963 ± 0.0077	1.89 ± 0.025		
CAACGG	1.85 ± 0.08	1.42 ± 0.043		
CUUGCA	2.01 ± 0.023	1.87 ± 0.041	0.834 ± 0.021	0.882 ± 0.079
CUUGCU	2 ± 0.018	1.94 ± 0.097	0.359 ± 0.037	0.458 ± 0.056
UAAUUG	1.92 ± 0.051	1.74 ± 0.02		

Variant	normalized RNA/DNA level with ligand (log10) (hypoxanthine [1])	normalized RNA/DNA level without ligand (log10) (hypoxanthine [2])	FACS-Seq fitted mean (log10) (hypoxanthine [3])	FACS-Seq fitted mean (log10) (hypoxanthine [4])
GUUGGG	1.89 ± 0.025	1.52 ± 0.029	0.375 ± 0.11	0.635 ± 0.028
CACAUU	1.909 ± 0.017	1.86 ± 0.031		
CACAUG	1.91 ± 0.075	1.857 ± 0.017		
GACCUC	1.93 ± 0.031	1.909 ± 0.0094		
GACCUA	1.935 ± 0.01	1.85 ± 0.033		
UACCGC	1.942 ± 0.0069	1.8 ± 0.039		
AACAAA	1.91 ± 0.035	1.785 ± 0.017		
AACAAC	1.899 ± 0.015	1.8557 ± 0.001		
UAAGCA	1.89 ± 0.031	1.8271 ± 0.0017		
UAAGCU	1.946 ± 0.013	1.874 ± 0.011		
UAAGCC	1.9849 ± 0.0019	1.876 ± 0.015		
UAAAAG	1.87 ± 0.025	1.627 ± 0.011		
GAAUCU	1.9 ± 0.069	1.9 ± 0.044		
GAAUCC	1.93 ± 0.067	1.898 ± 0.008		
AACCUC	1.937 ± 0.018	1.96 ± 0.027		
AACCUA	1.93 ± 0.028	1.84 ± 0.047		
AACCUU	1.9 ± 0.054	1.895 ± 0.0019		
GUUGUG	1.83 ± 0.042	1.39 ± 0.028	0.225 ± 0.066	0.406 ± 0.14
GUUGUU	1.969 ± 0.0045	1.9 ± 0.029	0.56 ± 0.026	0.67542 ± 0.00062
GUUGUA	1.9 ± 0.025	1.84 ± 0.032	0.455 ± 0.0078	0.632 ± 0.012
UAAGGC	1.945 ± 0.0051	1.839 ± 0.0074		
AAAAUC	1.94 ± 0.023	1.92 ± 0.041		
AAAAUA	1.909 ± 0.018	1.777 ± 0.015		
UAACCA	1.941 ± 0.018	1.89 ± 0.042		
UAACCU	1.983 ± 0.011	1.91 ± 0.04		
UAAGAU	1.907 ± 0.0056	1.72 ± 0.057		

Variant	normalized RNA/DNA level with ligand (log10) (hypoxanthine [1])	normalized RNA/DNA level without ligand (log10) (hypoxanthine [2])	FACS-Seq fitted mean (log10) (hypoxanthine [3])	FACS-Seq fitted mean (log10) (hypoxanthine [4])
CAAAAU	1.88 ± 0.035	1.763 ± 0.0036		
GUUUCC	1.95 ± 0.089	2.03 ± 0.06	0.703 ± 0.042	0.641 ± 0.02
GUUUUC	1.92 ± 0.025	1.952 ± 0.01	-0.0599 ± 0.0079	-0.0383 ± 0.14
GUUUUG	1.9 ± 0.084	1.567 ± 0.002	0.498 ± 0.038	0.551 ± 0.047
GUUUUU	1.941 ± 0.0034	1.93 ± 0.05	0.142 ± 0.041	0.1 ± 0.015
UUUUGA	1.98 ± 0.031	1.63 ± 0.023	0.455 ± 0.043	0.5 ± 0.019
UAAUGA	1.91 ± 0.024	1.653 ± 0.0099		
UAAUGU	1.89 ± 0.045	1.599 ± 0.0059		
UAAUGC	1.93 ± 0.023	1.823 ± 0.0029		
AAAGUC	1.98 ± 0.07	1.919 ± 0.0031		
GACACU	1.912 ± 0.0036	1.905 ± 0.008		
GACACA	1.934 ± 0.012	1.8467 ± 2.7e-05		
GAAUUU	1.964 ± 0.015	1.89 ± 0.022		
AACAGC	1.94 ± 0.036	1.83 ± 0.05		
AAAAAC	1.894 ± 0.015	1.8 ± 0.021		
GAAGAU	1.94 ± 0.035	1.8 ± 0.075		
GUUGCA	1.918 ± 0.017	1.81 ± 0.021	0.818 ± 0.056	0.698 ± 0.011
CUUUUA	1.92 ± 0.051	1.77 ± 0.043	0.647 ± 0.044	0.318 ± 0.12
UACCCU	1.9818 ± 0.00074	1.916 ± 0.015		
UACCCA	1.96 ± 0.057	1.89 ± 0.024		
UACCCG	1.93 ± 0.073	1.692 ± 0.0093		
AACCCC	1.97 ± 0.082	1.87 ± 0.043		
AACCCU	1.932 ± 0.0028	1.8887 ± 0.0015		
AUUUAA	1.901 ± 0.019	1.81 ± 0.051	0.629 ± 0.027	0.649 ± 0.015
UACCAU	1.914 ± 0.0031	1.832 ± 0.0068		
UACCAC	1.88 ± 0.045	1.793 ± 0.016		
